Publication PMC5645109 (PLoS ONE, 2017)

Biological target: T1, Torpedo nAChR (extract from the electric organ of Torpedo californica) (Tetronarce californica (Torpedo …, UniProt P02710;P02712;P02714;P02718))
T1 construct: acetylcholine receptor α-subunit, Torpedo californica; acetylcholine receptor β-subunit, Torpedo californica; acetylcholine receptor γ-subunit, Torpedo californica; acetylcholine receptor δ-subunit, Torpedo californica; also called torpedo AChR antigen; source: extract of the electric organ of Torpedo californica (gift, University of Nagasaki); copies: + + +
T1 sequence (P02718 whole entry, looked up, chain 1 of 4): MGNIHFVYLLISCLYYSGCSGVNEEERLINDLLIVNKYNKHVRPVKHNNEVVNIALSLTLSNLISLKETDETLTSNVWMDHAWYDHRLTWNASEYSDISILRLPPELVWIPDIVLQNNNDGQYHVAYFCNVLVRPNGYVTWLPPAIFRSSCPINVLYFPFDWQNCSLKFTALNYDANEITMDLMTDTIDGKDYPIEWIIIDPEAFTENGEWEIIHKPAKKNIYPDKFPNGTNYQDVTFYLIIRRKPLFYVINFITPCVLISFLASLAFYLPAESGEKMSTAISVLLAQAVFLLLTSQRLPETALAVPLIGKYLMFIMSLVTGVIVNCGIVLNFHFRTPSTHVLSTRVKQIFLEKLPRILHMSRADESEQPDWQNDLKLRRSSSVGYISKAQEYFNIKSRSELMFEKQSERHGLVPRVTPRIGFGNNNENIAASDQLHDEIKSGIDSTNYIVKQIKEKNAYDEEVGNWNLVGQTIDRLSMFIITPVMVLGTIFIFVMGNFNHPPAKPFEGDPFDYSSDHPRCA
T1 sequence (P02714 whole entry, looked up, chain 2 of 4): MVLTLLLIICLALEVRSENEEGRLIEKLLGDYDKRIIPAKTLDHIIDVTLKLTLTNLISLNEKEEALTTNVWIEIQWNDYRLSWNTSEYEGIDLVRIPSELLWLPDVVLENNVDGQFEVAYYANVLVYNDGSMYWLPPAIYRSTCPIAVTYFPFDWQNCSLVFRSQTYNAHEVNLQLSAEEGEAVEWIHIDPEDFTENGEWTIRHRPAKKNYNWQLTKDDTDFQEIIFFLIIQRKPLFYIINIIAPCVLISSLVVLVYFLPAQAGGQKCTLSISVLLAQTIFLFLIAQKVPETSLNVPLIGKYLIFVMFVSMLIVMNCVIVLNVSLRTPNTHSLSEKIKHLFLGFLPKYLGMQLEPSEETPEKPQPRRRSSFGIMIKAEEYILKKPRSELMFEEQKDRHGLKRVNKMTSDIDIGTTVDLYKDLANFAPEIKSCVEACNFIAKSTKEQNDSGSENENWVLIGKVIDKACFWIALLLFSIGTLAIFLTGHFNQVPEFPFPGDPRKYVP
T1 sequence (P02712 whole entry, looked up, chain 3 of 4): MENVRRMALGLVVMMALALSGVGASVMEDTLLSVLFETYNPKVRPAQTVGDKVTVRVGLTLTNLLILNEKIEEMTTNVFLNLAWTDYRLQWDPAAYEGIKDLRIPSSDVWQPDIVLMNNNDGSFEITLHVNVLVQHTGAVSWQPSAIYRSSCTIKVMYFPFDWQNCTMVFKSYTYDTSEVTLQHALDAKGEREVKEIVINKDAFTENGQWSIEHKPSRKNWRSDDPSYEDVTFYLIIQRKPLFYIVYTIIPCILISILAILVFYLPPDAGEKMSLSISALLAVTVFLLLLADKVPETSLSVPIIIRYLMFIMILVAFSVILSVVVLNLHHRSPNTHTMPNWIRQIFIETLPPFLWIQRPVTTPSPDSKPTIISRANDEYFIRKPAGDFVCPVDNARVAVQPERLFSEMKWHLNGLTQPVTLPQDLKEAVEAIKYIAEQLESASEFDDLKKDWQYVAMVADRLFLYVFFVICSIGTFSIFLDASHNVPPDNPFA
T1 sequence (P02710 whole entry, looked up, chain 4 of 4): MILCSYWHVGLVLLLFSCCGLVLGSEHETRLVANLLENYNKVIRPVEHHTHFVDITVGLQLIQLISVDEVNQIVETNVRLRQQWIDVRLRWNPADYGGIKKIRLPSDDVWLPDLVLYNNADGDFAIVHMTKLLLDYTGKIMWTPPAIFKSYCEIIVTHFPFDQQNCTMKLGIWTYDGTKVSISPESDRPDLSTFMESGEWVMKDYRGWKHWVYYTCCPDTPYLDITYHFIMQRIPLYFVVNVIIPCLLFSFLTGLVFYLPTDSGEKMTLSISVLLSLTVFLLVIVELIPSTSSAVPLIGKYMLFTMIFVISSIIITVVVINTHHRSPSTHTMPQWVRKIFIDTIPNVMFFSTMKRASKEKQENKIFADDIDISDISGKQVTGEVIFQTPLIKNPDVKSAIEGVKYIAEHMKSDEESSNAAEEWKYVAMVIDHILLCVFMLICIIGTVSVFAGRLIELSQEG
Assay: radio immunoprecipitation assay; extract of the electric organ of Torpedo californica or extract of rat sciatic nerve as antigen; relative binding affinity; method of ref. 54
Settings: one partner purified

binding result: binds
B1: rat mAb35, anti-nAChR main immunogenic region antibody (rat IgG1) (antibody, V domains shown)
VH: EVQLQESGPGLVQPSETLSLTCTVSGFSLTSYSVSWLRQPSGKGPEWMGRMWDDGGTVYNSGLKSRLSISRDTSKNQVFLKMNSLQTDDTGTYYCTRDERIRAINWFAYWGQGTLVTVSS
VL: DIVITQSPSLLSASVGDRVTLTCKGSQNIDNYLAWYQQKLGEAPKLLIYKTNSLQTGIPSRFSGSGSGTDYTLTISSLHSEDLATYYCYQYINGYTFGTGTKLELK
notes: heavy chain of rat mAb35 (rat IgG1); light chain of rat mAb35; the hybridoma clone is named for the cDNA; also called mAb35 (rat); source: rat Hybridoma
